T1: FLAG-GIT1 (synthesized in vitro) (UniProt Q9Y2X7 1-761)
T1 sequence: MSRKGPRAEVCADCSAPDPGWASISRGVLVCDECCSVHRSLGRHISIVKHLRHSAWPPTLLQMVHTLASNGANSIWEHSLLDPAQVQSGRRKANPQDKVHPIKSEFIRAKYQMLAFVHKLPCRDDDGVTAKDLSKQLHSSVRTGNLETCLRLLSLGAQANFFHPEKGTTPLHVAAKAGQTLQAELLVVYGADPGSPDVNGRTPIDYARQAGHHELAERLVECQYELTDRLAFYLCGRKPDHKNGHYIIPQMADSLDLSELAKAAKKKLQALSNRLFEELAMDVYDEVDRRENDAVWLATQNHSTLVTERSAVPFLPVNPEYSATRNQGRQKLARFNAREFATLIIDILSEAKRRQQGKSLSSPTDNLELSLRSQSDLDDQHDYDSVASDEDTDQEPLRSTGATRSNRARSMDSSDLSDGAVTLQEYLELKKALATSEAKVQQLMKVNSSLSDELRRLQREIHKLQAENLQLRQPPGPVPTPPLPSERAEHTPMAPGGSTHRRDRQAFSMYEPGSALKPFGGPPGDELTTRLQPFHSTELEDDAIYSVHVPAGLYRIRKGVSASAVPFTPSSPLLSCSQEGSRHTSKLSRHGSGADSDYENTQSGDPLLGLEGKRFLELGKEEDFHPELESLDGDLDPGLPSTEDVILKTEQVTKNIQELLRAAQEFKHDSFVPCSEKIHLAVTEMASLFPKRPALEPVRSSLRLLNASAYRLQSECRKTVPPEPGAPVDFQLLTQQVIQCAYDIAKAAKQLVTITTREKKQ

B1: FLAG-GIT1 (expressed in CHO-K1 cells) (natural protein)
chain: T1 sequence
B2: phospho–S273-paxillin (untagged WT-paxillin synthesized in vitro and incubated with CA-myc-PAK1) (natural protein)
chain: not shown
modifications: phosphoserine at 273

Assays:
Test in all cases: co-IP
S273A-paxillin-GFP = S273A-paxillin-GFP (UniProt P49024 1-559, S273A)
S273D-paxillin-GFP = S273D-paxillin-GFP (UniProt P49024 1-559, S273D)
[1] = target: T1, FLAG-GIT1 (synthesized in vitro)

S273D-paxillin-GFP, sequence (P49024 whole entry S273D): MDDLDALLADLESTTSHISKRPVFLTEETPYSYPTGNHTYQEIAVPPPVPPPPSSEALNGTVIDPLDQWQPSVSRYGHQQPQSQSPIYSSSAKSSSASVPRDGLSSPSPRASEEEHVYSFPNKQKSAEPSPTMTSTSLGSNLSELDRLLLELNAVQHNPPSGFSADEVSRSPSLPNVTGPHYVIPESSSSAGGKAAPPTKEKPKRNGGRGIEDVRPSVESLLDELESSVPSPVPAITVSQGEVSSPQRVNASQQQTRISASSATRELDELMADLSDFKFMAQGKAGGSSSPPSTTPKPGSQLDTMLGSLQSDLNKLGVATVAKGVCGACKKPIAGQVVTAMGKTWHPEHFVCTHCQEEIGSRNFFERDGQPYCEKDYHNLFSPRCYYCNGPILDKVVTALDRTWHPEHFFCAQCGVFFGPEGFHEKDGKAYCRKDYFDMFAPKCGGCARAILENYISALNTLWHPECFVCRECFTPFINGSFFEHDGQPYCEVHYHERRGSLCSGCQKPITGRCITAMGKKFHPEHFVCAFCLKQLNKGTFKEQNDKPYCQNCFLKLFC
S273A-paxillin-GFP, sequence (P49024 whole entry S273A): as the sequence (P49024 whole entry S273D) above, with D273A counted along it

Binder | fold decrease of GIT1 binding against WT-paxillin (S273A-paxillin-GFP) [fold] | fold increase of GIT1 binding against WT-paxillin (S273D-paxillin-GFP) [fold] | fold increase of phospho–S273-paxillin bound to FLAG-GIT1 with CA- versus KD-PAK [1] [fold]
B1 | 2 | ~3 | –
B2 | – | – | 7

— PMC2063867 (The Journal of Cell Biology, 2006)
